Ends that are not written are not given here.
Columns and labels:
Assay in all cases: SPR
[1] = target: recombinant mouse transferrin receptor (TfR) protein (mouse, UniProt Q62351 1-763)
[2] = target: recombinant human transferrin receptor (TfR) protein (human, UniProt P02786 101-760)
[3] = target: low-density lipoprotein receptor-related protein 1 (LRP-1), human (human)

recombinant human transferrin receptor (TfR) protein, sequence (P02786 101-760): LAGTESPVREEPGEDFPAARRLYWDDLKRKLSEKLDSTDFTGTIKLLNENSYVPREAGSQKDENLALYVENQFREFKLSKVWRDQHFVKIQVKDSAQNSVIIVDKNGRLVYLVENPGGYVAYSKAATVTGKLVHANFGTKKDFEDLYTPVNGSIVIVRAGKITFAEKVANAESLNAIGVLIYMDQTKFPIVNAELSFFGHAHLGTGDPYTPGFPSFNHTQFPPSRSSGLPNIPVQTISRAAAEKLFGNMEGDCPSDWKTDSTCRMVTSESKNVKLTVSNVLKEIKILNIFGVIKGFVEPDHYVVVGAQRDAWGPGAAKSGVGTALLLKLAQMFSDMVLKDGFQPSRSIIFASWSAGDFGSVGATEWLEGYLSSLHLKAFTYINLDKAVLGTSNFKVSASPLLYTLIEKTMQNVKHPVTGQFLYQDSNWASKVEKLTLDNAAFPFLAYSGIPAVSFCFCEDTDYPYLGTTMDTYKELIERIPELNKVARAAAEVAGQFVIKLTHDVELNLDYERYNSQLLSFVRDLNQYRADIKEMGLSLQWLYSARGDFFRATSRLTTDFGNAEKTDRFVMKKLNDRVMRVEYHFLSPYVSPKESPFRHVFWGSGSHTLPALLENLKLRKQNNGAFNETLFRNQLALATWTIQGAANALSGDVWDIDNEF
recombinant mouse transferrin receptor (TfR) protein, sequence (Q62351 89-763): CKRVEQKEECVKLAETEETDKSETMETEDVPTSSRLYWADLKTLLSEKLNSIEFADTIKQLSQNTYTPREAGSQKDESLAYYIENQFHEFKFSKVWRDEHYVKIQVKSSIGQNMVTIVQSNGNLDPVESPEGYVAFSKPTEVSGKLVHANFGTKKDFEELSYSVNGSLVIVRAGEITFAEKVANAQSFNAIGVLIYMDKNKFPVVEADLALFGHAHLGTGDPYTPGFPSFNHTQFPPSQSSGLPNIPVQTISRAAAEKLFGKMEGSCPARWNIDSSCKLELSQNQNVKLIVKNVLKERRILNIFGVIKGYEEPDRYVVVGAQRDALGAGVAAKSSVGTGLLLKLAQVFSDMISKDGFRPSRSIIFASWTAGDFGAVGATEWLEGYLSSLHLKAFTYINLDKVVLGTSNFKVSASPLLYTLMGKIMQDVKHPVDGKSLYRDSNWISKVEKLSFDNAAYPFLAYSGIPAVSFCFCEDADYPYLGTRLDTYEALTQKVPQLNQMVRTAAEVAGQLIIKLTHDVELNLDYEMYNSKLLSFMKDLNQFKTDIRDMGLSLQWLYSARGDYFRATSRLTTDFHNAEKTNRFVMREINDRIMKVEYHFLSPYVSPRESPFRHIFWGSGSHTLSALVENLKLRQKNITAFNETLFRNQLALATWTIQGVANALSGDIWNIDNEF

Kd [1] | Kd [2] | Kd [3] | Binder
1.3 µM | 0.507 µM | 0.00057 µM | FRCLVENRGDVPFVTRIR-NH2 [MTfp (peptide 1), peptide derived from melanotransferrin]
 | 171 µM | 0.1 µM | GYRPVHNIRGHWAPGK-NH2 [GYR (peptide 2)]

Source: article PMC8018780 (2021)
